Laboratory results from patent US20260191907A1 (INSTITUT CURIE, published 2026).

B1: L-B5, VCR-loaded fluorescent liposomes decorated with nanobody B5 (other)
VHH: EVQLQASGGGFVQPGGSLRLSCAASGRTSWLTTMGWFRQAPGKEREFVSAISSFSSKQGYYADSVKGRFTISRDNSKNTVYLQMNSLRAEDTATYYCAYASYPRHQGNGRWKDFVEYWGQGTQVTVSS
modifications: C-terminal cysteine coupled to DSPE-PEG-maleimide on the liposomal surface
notes: Liposome as for L-A8; also called FGFR4-targeted liposomes; not shown: C-terminal Myc/6xHis-tag and an additional cysteine
B2: L-B1, VCR-loaded fluorescent liposomes decorated with nanobody B1 (other)
VHH: EVQLQASGGGFVQPGGSLRLSCAASGYTSRSSAMGWFRQAPGKEREFVSAISDLTGYPYYYADSVKGRFTISRDNSKNTVYLQMNSLRAEDTATYYCAAYQDDKWTYGSQHGKYWGQGTQVTVSS
modifications: C-terminal cysteine coupled to DSPE-PEG-maleimide on the liposomal surface
notes: as for B1
B3: L-A8, VCR-loaded fluorescent liposomes decorated with nanobody A8 (other)
VHH: EVQLQASGGGFVQPGGSLRLSCAASGRTYSRDTMGWFRQAPGKEREFVSAISSRHSHTTYYADSVKGRFTISRDNSKNTVYLQMNSLRAEDTATYYCAEWDVFDMHYALPPMWYWGQGTQVTVSS
modifications: C-terminal cysteine coupled to DSPE-PEG-maleimide on the liposomal surface
notes: Liposome of egg sphingomyelin, cholesterol, PEG-ceramide, DSPE-PEG-maleimide and DiR, loaded with vincristine; also called FGFR4-targeted liposomes; not shown: C-terminal Myc/6xHis-tag and an additional cysteine
B4: L-F8, VCR-loaded fluorescent liposomes decorated with nanobody F8 (other)
VHH: EVQLVESGGGLVQPGGSLRLSCAASGTGYALDDMGWVRQAPGKGLEWVSAISDDESMADYYADSVKGRFTISRDNSKNTVYLQMNSLRAEDTAVYYCASYKEYKYQSGHHYFAYRGQGTLVTVSS
modifications: C-terminal cysteine coupled to DSPE-PEG-maleimide on the liposomal surface
notes: as for B1

How the values were obtained:
[1] = target: T1, FGFR4 expressed on the surface of RMS cells (Rh4-FR4 wt, Rh30) (human, UniProt P22455 22-802); assay: flow cytometry of DiR fluorescence, liposomes at 0.5 mM lipid on Rh4-FR4 wt cells, 2 h at 37 °C
T1 construct: Endogenous FGFR4 of the rhabdomyosarcoma cell lines; The whole entry includes the signal peptide; also called cell-surface FGFR4; Rh4-FR4 wt cells
T1 sequence (P22455 22-802 limits assumed): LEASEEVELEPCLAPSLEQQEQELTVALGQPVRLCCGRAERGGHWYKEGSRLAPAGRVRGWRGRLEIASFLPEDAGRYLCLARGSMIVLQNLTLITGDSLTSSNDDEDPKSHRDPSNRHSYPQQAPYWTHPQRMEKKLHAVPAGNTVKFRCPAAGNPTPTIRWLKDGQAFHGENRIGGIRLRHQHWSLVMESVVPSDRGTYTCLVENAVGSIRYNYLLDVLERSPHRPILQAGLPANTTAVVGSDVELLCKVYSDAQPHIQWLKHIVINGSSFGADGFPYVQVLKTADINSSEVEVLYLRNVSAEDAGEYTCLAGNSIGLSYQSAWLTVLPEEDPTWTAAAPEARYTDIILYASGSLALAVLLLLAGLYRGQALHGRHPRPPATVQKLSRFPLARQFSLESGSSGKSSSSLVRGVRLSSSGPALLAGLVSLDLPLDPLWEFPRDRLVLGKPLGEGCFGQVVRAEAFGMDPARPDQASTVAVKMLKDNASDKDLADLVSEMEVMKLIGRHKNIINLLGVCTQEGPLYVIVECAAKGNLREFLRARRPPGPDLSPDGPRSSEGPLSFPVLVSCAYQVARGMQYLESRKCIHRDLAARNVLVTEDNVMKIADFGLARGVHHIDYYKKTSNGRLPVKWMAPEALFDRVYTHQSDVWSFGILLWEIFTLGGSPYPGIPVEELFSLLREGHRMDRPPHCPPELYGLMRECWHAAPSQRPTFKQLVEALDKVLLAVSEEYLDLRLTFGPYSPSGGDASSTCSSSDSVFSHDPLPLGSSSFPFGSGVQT
Method: Binding validation of selected phages, recombinant nanobodies and decorated liposomes was performed on Rh4-FR4 wt and Rh4-FR4ko cells. Specificity of selected phage clones binding to FGFR4 was determined by flow cytometry in 96-well plates (Becton Dickinson). Cell surface staining of Rh4-FR4 wt or Rh4-FR4ko cells was performed on ice in PBS supplemented with 1% FBS. 80 μL phages+20 μL PBS/1% milk were incubated on 1×10⁵ cells for 1 h on ice. […] Samples were analyzed after two washes by flow cytometry on a MACSQuant® cytometer (Miltenyi) and results were analyzed with FlowJo™ software (BD Biosciences, France). Phages displaying anti-mCherry nanobodies were used as negative control²⁴ and as positive control we used an anti-FGFR4 antibody (BT53, kindly provided by J. Khan lab, NCI, Bethesda, MD). For binding test of recombinant nanobodies, cells were detached with Accutase® (Stemcell Technologies) and washed with PBS. All following steps were performed on ice: 4×10⁵ cells were incubated with nanobody concentrations of 30 μg/ml for 1 h, washed once with PBS and incubated for an additional 30 min with anti His-tag FITC labeled antibody (LS-C57341, LSBioscience, diluted 1:10). The cells were washed once more with PBS and analyzed. Targeting liposomes were added at 0.5 mM final lipid concentration to cells in 96-well plates and incubated for 2 h at 37° C. and 5% CO₂. The cells were washed twice with PBS and detached with Accutase®.
(§1) We next wanted to test if nanobodies on the liposomal surface can still bind to FGFR4 expressing RMS cells. Rh4-FR4 wt and Rh4-FR4ko cells were incubated for 2 h with FGFR4-targeted liposomes or mCherry-targeted control liposomes under normal cell culture conditions. DiR fluorescence was subsequently analyzed by flow cytometry (FIG. 5).

[2] = target: T1, FGFR4 expressed on the surface of RMS …; assay: flow cytometry of DiR fluorescence, liposomes at 0.5 mM lipid on Rh4-FR4 wt cells; reference L-mCh
Method: Samples were analyzed after two washes by flow cytometry on a MACSQuant® cytometer (Miltenyi) and results were analyzed with FlowJo™ software (BD Biosciences, France). Phages displaying anti-mCherry nanobodies were used as negative control²⁴ and as positive control we used an anti-FGFR4 antibody (BT53, kindly provided by J. Khan lab, NCI, Bethesda, MD). For binding test of recombinant nanobodies, cells were detached with Accutase® (Stemcell Technologies) and washed with PBS. All following steps were performed on ice: 4×10⁵ cells were incubated with nanobody concentrations of 30 μg/ml for 1 h, washed once with PBS and incubated for an additional 30 min with anti His-tag FITC labeled antibody (LS-C57341, LSBioscience, diluted 1:10). The cells were washed once more with PBS and analyzed. Targeting liposomes were added at 0.5 mM final lipid concentration to cells in 96-well plates and incubated for 2 h at 37° C. and 5% CO₂. The cells were washed twice with PBS and detached with Accutase®.
as §1

Row | Binder | MFI [1] [MFI] | fold increase of MFI over L-mCh [2] [fold]
1 | B1 | 1700 | 34
2 | B2 | 600 | 12
3 | B3 | 300 | 6
4 | B4 | 1400 | 28
